Measurements taken from US20240116985A1, “STAPLED PEPTIDES AND METHODS THEREOF” (priority 2020, published 2024).
Starred links: 1 amine or outer side, 2 acyl side, 3 side chain; linkers in the order of their positions; H or OH if unused. Positions of bridges follow the written chain, without caps; N, C: chain ends. Non-standard residues stand in square brackets, D forms with d. Primed or numbered codes have the meaning given here. *: point of attachment. PyrS2″ = (S)-3-amino-1-((pent-4-en-1-yloxy)carbonyl)pyrrolidine-3-carboxylic acid (stapling residue), C=CCCCOC(=O)N1CC[C@@](N[*:1])(C(=O)[*:2])C1; B5(4) = 2,2-bis(4-pentenyl)glycine = 2-amino-2-(pent-4-en-1-yl)hept-6-enoic acid (stitching residue), C=CCCCC(CCCC=C)(N[*:1])C(=O)[*:2]; B5(5) = 2,2-bis(4-pentenyl)glycine, 2-amino-2-(pent-4-en-1-yl)hept-6-enoic acid (stitching residue), C=CCCCC(CCCC=C)(N[*:1])C(=O)[*:2]; TfeGA = (S)-2-amino-3-((carboxymethyl)(2,2,2-trifluoroethyl)amino)propanoic acid, O=C([C@H](CN(CC(=O)[*:3])CC(F)(F)F)N[*:1])[*:2]; PyrS2 = (S)-3-amino-1-((pent-4-en-1-yloxy)carbonyl)pyrrolidine-3-carboxylic acid, C=CCCCOC(=O)N1CC[C@@](N[*:1])(C(=O)[*:2])C1; B5(3) = 2,2-bis(4-pentenyl)glycine (stitching residue), C=CCCCC(CCCC=C)(N[*:1])C(=O)[*:2]; B5 = 2-amino-2-(pent-4-en-1-yl)hept-6-enoic acid, C=CCCCC(CCCC=C)(N[*:1])C(=O)[*:2]; Phe(2-Cl) = N[C@@H](Cc1ccccc1Cl)C(=O)O; Phe(2-OMe) = COc1ccccc1C[C@H](N)C(=O)O; 1Nal = N[C@@H](Cc1cccc2ccccc12)C(=O)O; 2Nal = N[C@@H](Cc1ccc2ccccc2c1)C(=O)O; Phe(2-F) = N[C@@H](Cc1ccccc1F)C(=O)O; Bta = N[C@@H](Cc1csc2ccccc12)C(=O)O; αAllylPro = C=CC[C@@]1(C(=O)O)CCCN1; tBuAla = CC(C)(C)C[C@H](N)C(=O)O; 3Thi = N[C@@H](Cc1ccsc1)C(=O)O; Cha = N[C@@H](CC1CCCCC1)C(=O)O; S8 = C=CCCCCCC[C@](C)(N)C(=O)O; hLeu = CC(C)CC[C@H](N)C(=O)O; Prolinol = OC[C@@H]1CCCN1*; hSer = N[C@@H](CCO)C(=O)O; Nle = CCCC[C@H](N)C(=O)O; Dap = NC[C@H](N)C(=O)O; Aib = CC(C)(N)C(=O)O; Ms = CS(=O)(=O)*

Key:
[1] = molecular target: full-length beta-Catenin (Uniprot ID P35222) (Homo sapiens (Human)) (UniProt P35222); assay: fluorescence polarization competition; full-length beta-catenin + 5FAM-TCF4(10-53) probe as competitor
Target sequence in this assay (P35222 2-781 limits assumed): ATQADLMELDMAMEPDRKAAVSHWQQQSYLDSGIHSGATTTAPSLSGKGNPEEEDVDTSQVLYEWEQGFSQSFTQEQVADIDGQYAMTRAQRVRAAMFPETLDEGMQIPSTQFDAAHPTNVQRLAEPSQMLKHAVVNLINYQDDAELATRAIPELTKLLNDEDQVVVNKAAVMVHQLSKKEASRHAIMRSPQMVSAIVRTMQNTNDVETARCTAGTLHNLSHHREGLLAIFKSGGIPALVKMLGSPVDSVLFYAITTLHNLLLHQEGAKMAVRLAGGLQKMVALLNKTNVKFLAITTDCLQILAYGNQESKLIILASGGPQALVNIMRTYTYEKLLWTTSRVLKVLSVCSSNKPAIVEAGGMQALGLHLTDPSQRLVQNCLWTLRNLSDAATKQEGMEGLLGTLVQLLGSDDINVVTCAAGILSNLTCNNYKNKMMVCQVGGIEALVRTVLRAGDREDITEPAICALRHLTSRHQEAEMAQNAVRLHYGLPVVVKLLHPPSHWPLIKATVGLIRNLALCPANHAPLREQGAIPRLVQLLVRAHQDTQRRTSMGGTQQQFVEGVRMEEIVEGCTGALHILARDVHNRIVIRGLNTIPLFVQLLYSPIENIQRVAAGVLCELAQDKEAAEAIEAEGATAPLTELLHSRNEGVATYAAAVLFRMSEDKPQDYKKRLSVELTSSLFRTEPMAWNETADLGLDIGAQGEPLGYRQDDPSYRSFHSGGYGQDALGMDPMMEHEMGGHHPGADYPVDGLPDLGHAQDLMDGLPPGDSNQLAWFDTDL

[2] = molecular target: full-length beta-Catenin (Uniprot ID P35222) (Homo sapiens (Human)) (UniProt P35222); assay: fluorescence polarization competition; displacement of 5FAM-TCF4(10-53) from full-length beta-catenin
Target sequence in this assay (P35222 whole entry, the tested form may be a part): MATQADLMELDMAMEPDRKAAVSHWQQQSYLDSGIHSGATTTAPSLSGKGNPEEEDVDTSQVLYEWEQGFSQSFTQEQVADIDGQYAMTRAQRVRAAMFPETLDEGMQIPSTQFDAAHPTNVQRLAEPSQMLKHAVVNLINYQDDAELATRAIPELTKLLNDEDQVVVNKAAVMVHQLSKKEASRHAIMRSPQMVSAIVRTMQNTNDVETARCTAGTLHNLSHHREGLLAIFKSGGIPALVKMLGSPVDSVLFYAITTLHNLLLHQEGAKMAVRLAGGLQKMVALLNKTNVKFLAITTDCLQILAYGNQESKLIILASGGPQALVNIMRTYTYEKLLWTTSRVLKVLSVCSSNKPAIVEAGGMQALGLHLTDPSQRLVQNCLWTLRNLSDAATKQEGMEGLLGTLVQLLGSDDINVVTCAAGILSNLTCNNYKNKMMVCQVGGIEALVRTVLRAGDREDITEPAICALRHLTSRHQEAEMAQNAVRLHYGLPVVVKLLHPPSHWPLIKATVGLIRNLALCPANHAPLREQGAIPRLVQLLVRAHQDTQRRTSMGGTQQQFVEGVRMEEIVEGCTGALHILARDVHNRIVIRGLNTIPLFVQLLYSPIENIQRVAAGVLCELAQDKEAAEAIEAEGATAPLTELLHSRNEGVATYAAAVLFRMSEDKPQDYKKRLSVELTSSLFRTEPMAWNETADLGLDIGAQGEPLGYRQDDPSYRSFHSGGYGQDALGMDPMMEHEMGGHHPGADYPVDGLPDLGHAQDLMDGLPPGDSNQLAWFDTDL

[3] = molecular target: full-length beta-Catenin (Uniprot ID P35222) (Homo sapiens (Human)) (UniProt P35222); assay: fluorescence polarization competition; full-length beta-catenin, 5FAM-TCF4(10-53) probe
Target sequence in this assay (P35222 2-781 limits assumed): as the sequence (P35222 2-781 limits assumed) above

[4] = molecular target: full-length beta-Catenin (Uniprot ID P35222) (Homo sapiens (Human)) (UniProt P35222); assay: fluorescence polarization competition; 10 nM full-length beta-catenin + 10 nM 5FAM-TCF4(10-53) probe
Target sequence in this assay (P35222 whole entry, the tested form may be a part): as the sequence (P35222 whole entry, the tested form may be a part) above

[5] = molecular target: full-length beta-Catenin (Uniprot ID P35222) (Homo sapiens (Human)) (UniProt P35222); assay: fluorescence polarization competition; full-length beta-catenin with 5FAM-labeled TCF4 residues 10-53 probe as competitor
Target sequence in this assay (P35222 whole entry, the tested form may be a part): as above

[6] = molecular target: full-length beta-Catenin (Uniprot ID P35222) (Homo sapiens (Human)) (UniProt P35222); assay: fluorescence polarization competition; full-length beta-catenin, competitor 5FAM-TCF4(10-53) probe
Target sequence in this assay (P35222 whole entry, the tested form may be a part): as above

[7] = molecular target: full-length beta-Catenin (Uniprot ID P35222) (Homo sapiens (Human)) (UniProt P35222); assay: fluorescence polarization competition; peptide titrated against 10 nM full-length beta-catenin + 10 nM 5FAM-TCF4(10-53)
Target sequence in this assay (P35222 2-781 limits assumed): as the sequence (P35222 2-781 limits assumed) above

Ac-[αAllylPro]D[Cha][B5(5)]DDAAFL[PyrS2″][Phe(2-Cl)][Bta]S-NH2 (staple 1-4, 4-11) [I-1112]
EC50 [1]: 40 nM
IC50 [2]: 40 nM

Ac-[αAllylPro]D[tBuAla][B5(5)]D[TfeGA]AAFN[PyrS2″][3Thi][Bta][dT]-NH2 (staple 1-4, 4-11; also: staple isomer composition, earlier-eluting HPLC peak) [I-948]
IC50 [3]: 2430 nM
EC50 [4]: 2430 nM

Ac-[αAllylPro]D[tBuAla][B5(3)]DDAAFS[PyrS2″][Phe(2-OMe)][Bta]S-NH2 (staple 1-4, 4-11) [I-1103]
EC50 [1]: 15 nM
IC50 [2]: 15 nM

Ac-[αAllylPro]D[tBuAla][B5(5)]D[TfeGA]AAFN[PyrS2″][3Thi][Bta]L-NH2 (staple 1-4, 4-11; also: staple isomer composition, earlier-eluting HPLC peak) [I-946]
IC50 [3]: 798 nM
EC50 [4]: 798 nM

Ac-[αAllylPro]DI[B5(4)]DDAAFN[S8][3Thi][Bta]H-NH2 (staple 1-4, 4-11) [I-556]
IC50 [5]: 20 nM
EC50 [2]: 20 nM

Ac-[αAllylPro][Dap](Ms)A[B5(4)]DEAAFN[S8]F[Bta]Q-NH2 (staple 1-4, 4-11) [I-534]
IC50 [5]: 5000 nM
EC50 [4]: 5000 nM

Ac-[αAllylPro]D[Cha][B5(3)]DDAAFS[PyrS2″][Phe(2-F)][Bta]S-NH2 (staple 1-4, 4-11) [I-1102]
EC50 [1]: 16 nM
IC50 [2]: 16 nM

Ac-[αAllylPro]DI[B5(4)]DEAA[tBuAla]Q[S8]F[Bta]Q-NH2 (staple 1-4, 4-11) [I-727]
IC50 [6]: 5000 nM
EC50 [5]: 5000 nM

Ac-[αAllylPro]D[tBuAla][B5(5)]D[TfeGA]AAFN[PyrS2″][3Thi][Bta][dT]-NH2 (staple 1-4, 4-11; also: staple isomer composition, later-eluting HPLC peak) [I-949]
IC50 [3]: 2260 nM
EC50 [4]: 2260 nM

Ac-[αAllylPro]D[1Nal][B5(3)]DDAAFS[PyrS2″][Phe(2-Cl)][Bta]Q-NH2 (staple 1-4, 4-11) [I-1108]
EC50 [1]: 18 nM
IC50 [2]: 18 nM

Ac-[αAllylPro]D[Cha][B5(3)]DDAAFS[PyrS2″][Phe(2-OMe)][Bta]S-NH2 (staple 1-4, 4-11) [I-1104]
EC50 [1]: 10 nM
IC50 [2]: 10 nM

Ac-[αAllylPro]D[tBuAla][B5(4)]DEAAFQ[S8]F[Bta]Q-NH2 (staple 1-4, 4-11) [I-544]
IC50 [5]: 24 nM
EC50 [2]: 24 nM

Ac-[αAllylPro]DI[B5(4)]DDAAFN[S8][3Thi][Bta]Q-NH2 (staple 1-4, 4-11) [I-552]
IC50 [5]: 15.5 nM
EC50 [2]: 15.5 nM

Ac-[αAllylPro]D[tBuAla][B5(4)]DEAAFT[S8][Phe(2-Cl)][Bta][dT]-NH2 (staple 1-4, 4-11; also: later eluting HPLC peak staple isomer composition) [I-1094]
EC50 [1]: 46 nM
IC50 [2]: 46 nM

Ac-[αAllylPro]DL[B5(5)]DEAAFN[S8]F[Bta]Q[Aib]-NH2 (staple 1-4, 4-11; also: later-eluting staple isomer) [I-737]
IC50 [6]: 353 nM
EC50 [5]: 353 nM

Ac-[αAllylPro]D[tBuAla][B5(4)]D[TfeGA]AAFN[PyrS2″][3Thi][Bta][hSer]-NH2 (staple 1-4, 4-11; also: earlier-eluting staple isomer composition) [I-950]
IC50 [3]: 1630 nM
EC50 [4]: 1630 nM

Ac-[αAllylPro]D[tBuAla][B5(4)]DDAAFN[PyrS2″][Phe(2-Cl)][Bta]-Prolinol (staple 1-4, 4-11) [I-1084]
EC50 [1]: 368 nM
IC50 [7]: 368 nM

Ac-[αAllylPro]DI[B5(4)]DDAAFN[S8][3Thi][Bta]Q-NH2 (staple 1-4, 4-11) [I-551]
IC50 [5]: 45 nM
EC50 [2]: 45 nM

Ac-[αAllylPro]DI[B5(4)]DDAAFN[S8][3Thi][Bta]H-NH2 (staple 1-4, 4-11) [I-555]
IC50 [5]: 41 nM
EC50 [2]: 41 nM

Ac-[αAllylPro]D[Cha][B5(3)]DDAAFS[PyrS2″]F[Bta]S-NH2 (staple 1-4, 4-11) [I-1100]
EC50 [1]: 16 nM
IC50 [2]: 16 nM

Ac-[αAllylPro]D[tBuAla][B5(5)]DEAAFL[S8][Phe(2-Cl)][Bta][dT]-NH2 (staple 1-4, 4-11) [I-1098]
EC50 [1]: 100 nM
IC50 [2]: 100 nM

Ac-[αAllylPro]DL[B5(5)]DEAAFN[S8]F[Bta]Q[Aib]-NH2 (staple 1-4, 4-11; also: earlier-eluting staple isomer) [I-736]
IC50 [6]: 440 nM
EC50 [5]: 440 nM

Ac-[αAllylPro]DI[B5(4)]DEAA[Nle]Q[S8]F[Bta]Q-NH2 (staple 1-4, 4-11) [I-728]
IC50 [6]: 289 nM
EC50 [5]: 289 nM

Ac-[αAllylPro]D[tBuAla][B5(5)]D[TfeGA]AAFN[PyrS2″][3Thi][Bta]L-NH2 (staple 1-4, 4-11; also: staple isomer composition, later-eluting HPLC peak) [I-947]
IC50 [3]: 1050 nM
EC50 [4]: 1050 nM

Ac-[αAllylPro]D[tBuAla][B5(3)]DEAAFL[S8][Phe(2-Cl)][Bta]Q-NH2 (staple 1-4, 4-11) [I-1096]
EC50 [1]: 17 nM
IC50 [2]: 17 nM

Ac-[αAllylPro]DA[B5(4)]D[Dap](Ms)AAFN[S8]F[Bta]Q-NH2 (staple 1-4, 4-11) [I-533]
IC50 [5]: 155 nM
EC50 [4]: 155 nM

Ac-[αAllylPro]D[tBuAla][B5(4)]D[TfeGA]AAFN[PyrS2″][3Thi][Bta][hSer]-NH2 (staple 1-4, 4-11; also: later-eluting staple isomer composition) [I-951]
IC50 [3]: 1470 nM
EC50 [4]: 1470 nM

Ac-[αAllylPro]D[2Nal][B5(3)]DDAAFS[PyrS2″][Phe(2-Cl)][Bta]Q-NH2 (staple 1-4, 4-11) [I-1109]
EC50 [1]: 24 nM
IC50 [2]: 24 nM

Ac-[αAllylPro]D[Cha][B5(3)]DDAAF[Cha][PyrS2″][Phe(2-Cl)][Bta]Q-NH2 (staple 1-4, 4-11) [I-1107]
EC50 [1]: 18 nM
IC50 [2]: 18 nM

Ac-[αAllylPro]D[tBuAla][B5(4)]DEAAFT[S8][Phe(2-Cl)][Bta][dT]-NH2 (staple 1-4, 4-11; also: earlier eluting HPLC peak staple isomer composition) [I-1093]
EC50 [1]: 43 nM
IC50 [2]: 43 nM

Ac-[αAllylPro]D[tBuAla][B5(3)]DDAAFS[PyrS2″][Phe(2-F)][Bta]S-NH2 (staple 1-4, 4-11) [I-1101]
EC50 [1]: 14 nM
IC50 [2]: 14 nM

Ac-[αAllylPro]DL[B5(5)]DEAAFN[S8]F[Bta]H[Aib]-NH2 (staple 1-4, 4-11) [I-743]
IC50 [6]: 85 nM
EC50 [5]: 85 nM

Ac-[αAllylPro]D[hLeu][B5(4)]DEAAFQ[S8]F[Bta]Q-NH2 (staple 1-4, 4-11) [I-545]
IC50 [5]: 21 nM
EC50 [2]: 21 nM
